Test results published in patent US20250319180A1.

Molecular target: human LY6H expressed on 293T cells (plasmid BBP491, M1-P140 plus Myc-DDK) (human) (UniProt O94772)
Assay: on-cell affinity by flow cytometry: unconjugated 12G7 (0.05-100 nM) competes with 1 nM PE-conjugated 12G7 on 293T cells expressing human LY6H; table row 293T-huLY6H

B1: 12G7 (antibody, V domains shown)
VH: QVQLQQWGAGLLKPSETLSLTCAVYGGSFSGYYWSWIRQPPGKGLEWIGEINHSGSTYYNPSLKSRVTMSVDTSKNQFSLKLSSVTAADTAVYYCAKRWELGAFDIWGQGTMVTVSS
VL: DIQMTQSPSSLSASVGDRVTITCRASQGISNYLAWYQQKPGKVPKLLIYAASTLQSGVPSRFSGSGSGTDFTLTISSLQPEDVATYYCQKYNSAPRTFGQGTKLEIK
With B1 the Kd was 9.9 nM.
